Results from patent publication US20250011413A1 (MCMASTER UNIVERSITY, published 2025).

How the values were obtained:
[1] = target: T1, PF4/heparin complex (human PF4 complexed with heparin) (human, UniProt P02776 32-101); assay: competition EIA, scFv 50 µg/mL; competitor HIT-negative sera antibodies, n=10
T1 construct: Multimeric complex of PF4 with heparin (not a protein); In the EIAs: PF4 captured on biotinylated heparin on streptavidin plates; In the SRA: platelets with 0.2 U/mL heparin; also called PF4 and heparin complexes
T1 sequence: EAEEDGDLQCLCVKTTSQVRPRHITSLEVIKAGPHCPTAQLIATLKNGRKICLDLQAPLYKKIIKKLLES
Procedure: (§1) Inhibitory PF4/heparin IgG-specific Streptavidin Enzyme Immunoassay (EIA). The binding activity of wildtype and mutant scFv antibodies to PF4/heparin complexes was measured using an inhibitory PF4/heparin IgG-specific EIA with a streptavidin-biotin capture system. Before performing this protocol, 96-well NUNC Maxisorp plates (ThermoFisher) were coated with 10 μg/mL streptavidin for 24 h. Plates were then blocked with 3% bovine serum albumin (BSA) in phosphate buffered saline (PBS) for 2 h at room temperature. Plates were then coated with 1 U/mL biotinylated-heparin for 1 h followed by 30 μg/mL PF4 for 1 h. Increasing concentrations of wildtype or mutant scFv were added and incubated for 1 hr at room temperature. Without removing wildtype or scFv, HIT patient sera in a 1:50 dilution or full-length KKO (2 μg/mL) was then incubated for 1 h at room temperature. After washing, alkaline phosphatase-conjugated anti-human or anti-mouse IgG (Jackson Immuno Research Laboratories, Inc., West Grove, PA) was added at a 1:4000 dilution and incubated for 1 h temperature. For detection, 1 mg/mL p-nitrophenylphosphate (PNPP, Sigma-Aldrich) substrate dissolved in 1 mol/L diethanolamine (DEA) buffer (pH 9.6) was added. The optical density (OD) was measured at 2 min intervals for 30 min at 405 nm (OD₄₀₅ₙₘ) using a BioTek 800 TS plate reader (BioTek Instruments Inc., Winooski, VT) to determine if anti-PF4/heparin antibody binding was inhibited. Results were reported as a decrease in OD (absorbance at 405 nm) from baseline levels.
Sera (n=10) from confirmed HIT-negative patients (EIA-positive/SRA-negative) containing anti-PF4/heparin antibodies were then used in the same EIA with scFv constructs to determine if antibody binding was decreased in this cohort (Table 5).

[2] = target: T2, Human PF4 (CXCL4), biotinylated, without heparin (human, UniProt P02776 32-101, biotinylated with EZ-link-Sulfo-NHS-LC-Biotin (sites not given)); assay: BLI (Octet), biotinylated PF4 without heparin on streptavidin sensors, scFv 1 µg/mL, 1:1 model
T2 construct: Immobilised on streptavidin biosensors for BLI; also called PF4 alone; platelet factor 4
T2 sequence: T1 sequence
Procedure: (§2) The Octet-QK Red 96 (FortéBio, Menlo Park, CA) instrumentation was used to conduct all BLI experiments. A 96-well microtiter plate (black, flat-bottom) was used to hold 200 μL per well of either sample or buffer. Pre-coated streptavidin biosensor tips (FortéBio) were hydrated in phosphate buffered saline (PBS) containing 1% bovine serum albumin (BSA, Sigma-Aldrich) before performing all kinetic assays. Each step was performed at an operating temperature of 23° C. with agitation at 1000 rpm. Streptavidin tips were first equilibrated in PBS+1% BSA to establish a baseline. […] The PF4-coated tips were then dipped into PBS+1% BSA for 13 minutes to re-establish a baseline. Tips were then incubated in an analyte solution containing half-fold dilutions of wildtype scFv (4.0, 2.0, 1.0, 0.5, 0.25 μg/mL in PBS+1% BSA) for 10 minutes to measure association. For mutant scFv association, tips were incubated in an analyte solution containing 200 μL of each mutant and wildtype scFv at a final concentration of 1 μg/mL in PBS+1% BSA. Antibody dissociation steps were performed by dipping sensors in wells containing PBS+1% BSA for 56 minutes. The following negative controls included in these kinetic experiments were also measured: 200 μL of buffer to replace both the antigen and scFv and 200 μL buffer replacing scFv only. Each experiment was performed with PF4 or with PF4/heparin as the immobilized antigen.
(§3) BLI experiments were performed to evaluate binding responses and affinities of wildtype and mutant scFv. Biotinylated PF4 alone or complexed with heparin was immobilized on streptavidin biosensors and used to capture wildtype scFv. Half-fold serial dilutions of wildtype scFv ranging from 0.25 μg/mL to 4 μg/mL were used to determine the optimal concentrations for future experiments PF4 (PF4 FIG. 3; PF4/heparin FIG. 4).

[3] = target: T1, PF4/heparin complex (human PF4 …); assay: competition EIA, scFv 50 µg/mL; competitor HIT-negative sera antibodies, n=10; remark: listed apart in the source
[4] = target: T1, PF4/heparin complex (human PF4 …); assay: BLI (Octet), biotinylated PF4/heparin on streptavidin sensors, scFv 1 µg/mL, 1:1 model
Procedure: as §2, §3

[5] = target: T2, Human PF4 (CXCL4), biotinylated, …; assay: BLI (Octet), biotinylated PF4 without heparin on streptavidin sensors, scFv at 1 µg/mL, 1:1 model, mean ± s.d. [cont.) b]
Procedure: (§4) BLI experiments were performed using wildtype scFv, mutant B, mutant C, mutant D, mutant E, and mutant F at 1 μg/mL. Binding was measured against immobilized biotinylated PF4 on streptavidin biosensors. b) Table showing kinetic data of wildtype and mutant scFv, including binding responses and association and dissociation rates. All data was analyzed based on a 1:1 homogenous ligand binding model using Octet® User Software version 3.1.
as §2
(§5) BLI experiments were performed to evaluate binding responses and affinities of wildtype and mutant scFv. Biotinylated PF4 alone or complexed with heparin was immobilized on streptavidin biosensors and used to capture wildtype scFv.

[6] = target: T1, PF4/heparin complex (human PF4 …); assay: cell-based or functional assay
[7] = target: T1, PF4/heparin complex (human PF4 …); assay: BLI (Octet), biotinylated PF4/heparin on streptavidin sensors, scFv 1 µg/mL
Procedure: as §2, §3

[8] = target: T1, PF4/heparin complex (human PF4 …); assay: competition EIA, scFv 50 µg/mL; competitor HIT-positive sera antibodies, n=10
Procedure: as §1
Inhibiting HIT-Positive (EIA+/SRA+) HIT-Negative (EIA+/SRA−) antibody binding: Sera (n=10) from confirmed HIT-positive patients (EIA-positive/SRA-positive) containing anti-PF4/heparin antibodies were used in a modified streptavidin-biotin based anti-PF4/heparin IgG EIA (streptavidin anti-PF4/hep EIA) with scFv at 50 μg/mL. On average, antibody binding to PF4/heparin was reduced in the presence of scFv.

[9] = target: T1, PF4/heparin complex (human PF4 …); assay: BLI (Octet), biotinylated PF4/heparin on streptavidin sensors, scFv at 1 µg/mL, 1:1 model, mean ± s.d.
Procedure: as §4, with “PF4/heparin complexes” for “PF4”, “Octet®)” for “Octet®”
as §2, §5

[10] = target: T2, Human PF4 (CXCL4), biotinylated, …; assay: BLI (Octet), biotinylated PF4 without heparin on streptavidin sensors, scFv 1 µg/mL
Procedure: as §2, §3

[11] = target: T1, PF4/heparin complex (human PF4 …); assay: competition EIA, scFv 50 µg/mL; competitor HIT-positive sera antibodies, n=10; remark: listed apart in the source

B1: Mutant C scFv, scFv(S50N, Y53H) (scFv)
scFv: DIQMIQSQKFMSTSVGDRVTVTCKASQNVGTNVAWYQQKPGQSPNALIYNASHRYSGVPDRFTGSGSGTDFTLTITNVQSEDLADYFCQQYNSYPLTFGTGTKLDLKGGGGSGGGGSGGGGSVQLQQSGAELVKPGASVKLSCKASGYTFTNYFIYWVKQRPGQGLEWIGEINPRNGDTDFNEKFESRATLTVDKSSSTAYMQLSSLTSEDSAIYYCTRSPYGNNYGFTYWGQGTLVTVSA
notes: VL-linker-VH; histidine-tagged, from E. coli BL21; also called Mut C; not shown: histidine tag from the pADL-22c vector
mean OD405nm of bound serum IgG (+ scFv) [1]: 1.24 OD405nm
Kd [2]: 1660 nM
mean % inhibition of serum antibody binding [3]: -42.5%
Kd [4]: 3.81 nM
fold increased affinity against wildtype scFv [4]: 10 fold
koff [5]: 0.000215 s⁻¹
kon [5]: 16900 M⁻¹ s⁻¹
% inhibition of 14C-serotonin release (SRA), HIT-Positive Patient #1 serum, scFv 50 µg/mL [6]: 14.4%
% inhibition of 14C-serotonin release (SRA), HIT-Positive Patient #1 serum, scFv 75 µg/mL [6]: 22.2%
% inhibition of 14C-serotonin release (SRA), HIT-Positive Patient #2 serum, scFv 50 µg/mL [6]: 15.4%
% inhibition of 14C-serotonin release (SRA), HIT-Positive Patient #2 serum, scFv 75 µg/mL [6]: 21.8%
% inhibition of 14C-serotonin release (SRA), HIT-Positive Patient #3 serum, scFv 50 µg/mL [6]: -1.2%
% inhibition of 14C-serotonin release (SRA), HIT-Positive Patient #3 serum, scFv 75 µg/mL [6]: 9.6%
% inhibition of 14C-serotonin release (SRA), HIT-Positive Patient #4 serum, scFv 50 µg/mL [6]: 3.3%
% inhibition of 14C-serotonin release (SRA), HIT-Positive Patient #4 serum, scFv 75 µg/mL [6]: 5.6%
% inhibition of 14C-serotonin release (SRA), HIT-Positive Patient #5 serum, scFv 50 µg/mL [6]: 22.2%
% inhibition of 14C-serotonin release (SRA), HIT-Positive Patient #5 serum, scFv 75 µg/mL [6]: 6.9%
average binding response (wavelength shift) [7]: 0.159 nm
fold higher binding response than wildtype scFv [7]: 2 fold
mean OD405nm of bound serum IgG (+ scFv) [8]: 0.799 OD405nm
koff [9]: 0.000477 s⁻¹
kon [9]: 85800 M⁻¹ s⁻¹
average binding response (wavelength shift) [10]: 0.0399 nm
mean % inhibition of serum antibody binding [11]: 50.6%
